The supplement of paper PMC9112550, “Optimization of the antimicrobial peptide Bac7 by deep mutational scanning” (BMC Biology, 2022)

Tested on: Escherichia coli TOP10
Assay: shrunken log2 fold change of peptide-encoding DNA abundance (4.5 h post-induction vs induction); higher = less antimicrobial activity (less host growth inhibition)
Conditions: time post-induction: 4.5 h; library: site-saturation at positions 5, 18, 19, 20
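Further: peptides expressed intracellularly from a pBAD plasmid library in pooled LB shake-flask culture, induced with 0.3% L-arabinose, DNA abundance read by NGS, three biological replicates, DESeq2 with apeglm shrinkage.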

Sequence	shrunken log2 fold change
RRIRYRPPRLPRPRPRPSYGPRP	-0.383
RRIRIRPPRLPRPRPRPNWHPRP	-0.227
RRIRERPPRLPRPRPRPSMMPRP	-0.257
RRIRFRPPRLPRPRPRPVVLPRP	0.0119
RRIRRRPPRLPRPRPRPQEDPRP	0.108
RRIRIRPPRLPRPRPRPMFCPRP	-0.345
RRIRYRPPRLPRPRPRPPIWPRP	-0.0337
RRIRERPPRLPRPRPRPRETPRP	0.0334
RRIRDRPPRLPRPRPRPVMHPRP	-0.112
RRIRLRPPRLPRPRPRPVLRPRP	-0.113
RRIRERPPRLPRPRPRPQNRPRP	-0.281
RRIRLRPPRLPRPRPRPAHCPRP	0.0914
RRIRERPPRLPRPRPRPMLAPRP	0.193
RRIRFRPPRLPRPRPRPSFPPRP	-0.38
RRIRLRPPRLPRPRPRPYPLPRP	-0.413
RRIRCRPPRLPRPRPRPLKLPRP	-0.271
RRIRQRPPRLPRPRPRPRYYPRP	-0.465
RRIRHRPPRLPRPRPRPRIEPRP	0.15
RRIRFRPPRLPRPRPRPSLAPRP	0.119
RRIRYRPPRLPRPRPRPQVHPRP	-0.0163
RRIRLRPPRLPRPRPRPGEAPRP	0.214
RRIRFRPPRLPRPRPRPQMVPRP	-0.0194
RRIRHRPPRLPRPRPRPWHPPRP	-0.801
RRIRMRPPRLPRPRPRPPFDPRP	0.873
RRIRWRPPRLPRPRPRPNVIPRP	-0.161

Sequence	shrunken log2 fold change
RRIRNRPPRLPRPRPRPMTKPRP	0.116
RRIRQRPPRLPRPRPRPDGGPRP	0.255
RRIRYRPPRLPRPRPRPSSYPRP	-0.955
RRIRGRPPRLPRPRPRPVSDPRP	1.26
RRIRYRPPRLPRPRPRPWVHPRP	-0.701
RRIRYRPPRLPRPRPRPEDLPRP	-0.00674
RRIRDRPPRLPRPRPRPCRSPRP	-0.0116
RRIRERPPRLPRPRPRPIYLPRP	-0.649
RRIRFRPPRLPRPRPRPIFYPRP	-0.0962
RRIRNRPPRLPRPRPRPEGDPRP	-0.043
RRIRCRPPRLPRPRPRPDFAPRP	0.115
RRIRCRPPRLPRPRPRPLEMPRP	-0.249
RRIRRRPPRLPRPRPRPAKAPRP	0.12
RRIRTRPPRLPRPRPRPCMNPRP	-1.43
RRIRHRPPRLPRPRPRPTEMPRP	0.181
RRIRARPPRLPRPRPRPQDCPRP	0.0638
RRIRCRPPRLPRPRPRPMLPPRP	-0.00464
RRIRCRPPRLPRPRPRPVPEPRP	0.316
RRIRGRPPRLPRPRPRPNRSPRP	-0.0578
RRIRIRPPRLPRPRPRPWAVPRP	-0.203
RRIRRRPPRLPRPRPRPSGQPRP	0.306
RRIRERPPRLPRPRPRPFYAPRP	-0.526
RRIRPRPPRLPRPRPRPFEGPRP	-0.0632
RRIRVRPPRLPRPRPRPNDMPRP	-0.337
RRIRTRPPRLPRPRPRPWLPPRP	-0.164

Sequence	shrunken log2 fold change
RRIRNRPPRLPRPRPRPNEDPRP	0.00927
RRIRFRPPRLPRPRPRPMSFPRP	-0.193
RRIRERPPRLPRPRPRPRQPPRP	0.273
RRIRVRPPRLPRPRPRPVEQPRP	-0.0734
RRIRARPPRLPRPRPRPVYGPRP	-0.235
RRIRFRPPRLPRPRPRPCIKPRP	-0.0867
RRIRGRPPRLPRPRPRPDTHPRP	-0.156
RRIRGRPPRLPRPRPRPNTGPRP	0.0864
RRIRYRPPRLPRPRPRPKTWPRP	-0.132
RRIRERPPRLPRPRPRPFIIPRP	-0.769
RRIRVRPPRLPRPRPRPYNRPRP	-0.0579
RRIRCRPPRLPRPRPRPGEHPRP	-0.0986
RRIRMRPPRLPRPRPRPGSPPRP	0.136
RRIRVRPPRLPRPRPRPDQMPRP	0.0399
RRIRPRPPRLPRPRPRPIHLPRP	-0.146
RRIRKRPPRLPRPRPRPPQEPRP	0.0788
RRIRRRPPRLPRPRPRPPSFPRP	0.251
RRIRFRPPRLPRPRPRPTERPRP	-0.22
RRIRPRPPRLPRPRPRPDFRPRP	-0.184
RRIRIRPPRLPRPRPRPQCHPRP	-0.594
RRIRDRPPRLPRPRPRPHQPPRP	-0.017
RRIRMRPPRLPRPRPRPVLFPRP	0.289
RRIRSRPPRLPRPRPRPRVIPRP	0.017
RRIRKRPPRLPRPRPRPSKWPRP	-0.119
RRIRIRPPRLPRPRPRPFSCPRP	-0.534
